Laboratory results as given in PMC6192259 (Molecular cell, 2017).

B1: MBP-Fap7 (enzyme, yeast, UniProt Q12055 1-197, looked up)
chain: MEARRYGPNIIVTGTPGCGKSSTCEFLKNKLKDYKYYNISDFAKDNDCFEGYDEGRKSHIVDEDKLLDMLEPLLRQGNSIVDWHVNDVFPERLIDLVVVLRCDNSNLYSRLHARGYHDSKIEENLDAEIMGVVKQDAVESYEPHIVVELQSDTKEDMVSNVSRIVAWEKMWLEQHPDGVTNEYQGPRSDDEDDEDSE
B2: Fap7 (enzyme, yeast, UniProt Q12055 1-197, looked up)
chain: B1 chain

Key:
Dim1 = Dim1 (yeast, UniProt P41819 1-318); test: pull-down
MBP-Dim1 = MBP-Dim1 (yeast, UniProt P41819 1-318); test: pull-down
MBP-Dim1, sequence (P41819 whole entry): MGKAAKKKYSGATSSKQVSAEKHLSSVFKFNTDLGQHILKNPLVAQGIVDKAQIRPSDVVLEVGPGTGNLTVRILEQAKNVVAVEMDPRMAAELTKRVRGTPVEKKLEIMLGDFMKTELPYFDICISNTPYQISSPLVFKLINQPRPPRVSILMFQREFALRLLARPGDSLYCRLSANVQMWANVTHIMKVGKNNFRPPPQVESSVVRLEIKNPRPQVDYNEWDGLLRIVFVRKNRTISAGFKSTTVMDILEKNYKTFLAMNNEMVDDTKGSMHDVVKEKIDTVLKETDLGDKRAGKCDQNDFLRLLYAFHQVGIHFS

Dim1, sequence (P41819 whole entry): as above

| Binder | binding result (Dim1) | binding result (MBP-Dim1) |
| --- | --- | --- |
| B1 | binds | – |
| B2 | – | binds |
